Results on one molecule are retold here after patent US20240076386A1 (Pfizer, published 2024).

For experiment [1], the target named is T1, cynomolgus monkey E-selectin extracellular domain with 10 His purification tail (cynomolgus monkey, UniProt P16581 22-554 (human entry)).
T1 construct: also called cynomolgus E-selectin; truncated cynomolgus monkey E-selectin
T1 chain: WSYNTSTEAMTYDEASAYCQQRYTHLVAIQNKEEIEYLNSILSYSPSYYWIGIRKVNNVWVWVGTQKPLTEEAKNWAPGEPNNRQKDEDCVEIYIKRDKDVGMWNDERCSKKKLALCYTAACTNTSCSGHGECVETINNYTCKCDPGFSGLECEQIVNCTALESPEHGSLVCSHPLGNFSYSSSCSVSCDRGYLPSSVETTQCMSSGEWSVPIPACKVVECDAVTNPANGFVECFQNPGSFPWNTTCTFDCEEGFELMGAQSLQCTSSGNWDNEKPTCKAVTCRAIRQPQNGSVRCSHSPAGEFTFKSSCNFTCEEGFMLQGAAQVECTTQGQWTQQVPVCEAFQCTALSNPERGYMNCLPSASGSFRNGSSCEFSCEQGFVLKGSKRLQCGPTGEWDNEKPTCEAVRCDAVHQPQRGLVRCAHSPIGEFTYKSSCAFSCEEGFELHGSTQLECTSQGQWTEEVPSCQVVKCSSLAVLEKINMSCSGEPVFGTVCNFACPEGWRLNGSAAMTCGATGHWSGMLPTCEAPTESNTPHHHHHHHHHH
Description: SPR, soluble recombinant protein. As for the experimental part: To characterize binding of antibodies to human, cynomolgus monkey, and mouse E-selectin, an antibody was diluted to 0.5 μg/mL in HBS-EP+ and captured by the anti-human IgG immobilized on flow cells 2, 3 and 4 for 30 seconds to 1 minute at a flow rate of 10 μL/minute to achieve a capture level of 70 to 300 RU. Flow cell 1 was used as a reference surface. […] HBS-EP+ buffer cycles collected for each captured antibody were used for double-referencing (Myszka D G. J. Mol. Recognition 1999; 12(5):279-84). At the end of each cycle, the entire anti-IgG surface was regenerated by a 30 second pulse of 3 M MgCl₂ and a 30 second pulse of ionic buffer (1.83 M MgCl₂, 0.92 M Urea, 1.83 M Guanidine HCl, pH 7.4) (Andersson K. Analy. Chem. 1999; 71(13): 2475-81). Kinetic assays were conducted at 25° C. at a collection rate of 10 Hertz (Hz) on a BIAcore™ T200 instrument (GE Healthcare). Rate constants and affinities were determined by fitting the data to a 1:1 binding model in BIAcore™ T200 Evaluation software version 3.0 (GE Healthcare).
(Surface plasmon resonance follows binding to a sensor surface in real time, without labels.)

Experiment [2] deals with T2, cynomolgus monkey E-selectin, cell-surface expressed (cynomolgus monkey, UniProt P16581 22-610 (human entry)).
T2 construct: also called CHO-cynomolgus monkey E-selectin cells; cynomolgus monkey CHO-E
T2 chain: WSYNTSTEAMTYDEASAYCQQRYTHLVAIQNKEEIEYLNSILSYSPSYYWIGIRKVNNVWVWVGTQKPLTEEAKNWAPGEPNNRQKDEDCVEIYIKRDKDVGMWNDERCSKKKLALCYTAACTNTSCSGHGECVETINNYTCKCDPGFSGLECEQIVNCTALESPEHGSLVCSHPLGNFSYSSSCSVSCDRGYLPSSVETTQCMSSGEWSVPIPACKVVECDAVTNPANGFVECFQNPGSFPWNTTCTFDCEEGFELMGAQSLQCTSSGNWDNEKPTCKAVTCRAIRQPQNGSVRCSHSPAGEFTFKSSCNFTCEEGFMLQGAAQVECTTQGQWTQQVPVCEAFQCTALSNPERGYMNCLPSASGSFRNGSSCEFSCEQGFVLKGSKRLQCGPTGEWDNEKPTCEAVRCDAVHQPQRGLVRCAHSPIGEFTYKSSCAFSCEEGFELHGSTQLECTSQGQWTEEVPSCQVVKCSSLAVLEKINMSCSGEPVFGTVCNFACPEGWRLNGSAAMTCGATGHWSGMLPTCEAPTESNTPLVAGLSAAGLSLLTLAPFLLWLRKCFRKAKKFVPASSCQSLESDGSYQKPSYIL
Description: neutralization of sialyl Lewis A ligand binding, CHO cells, competition ELISA. Here is the method:
In a static ligand cellular adhesion assay, horse radish peroxidase (HRP) conjugated E-selectin ligand (sialyl Lewis antigen) and E-selectin antibodies compete for binding to human or cynomolgus E-selectin expressed on Chinese hamster ovary (CHO) cells. The ability of anti-E-selectin antibodies to neutralize ligand binding was assessed in a static neutralization assay using a competition enzyme-linked immunosorbent assay (ELISA) to evaluate the neutralization of the sialyl Lewis antigen to Chinese hamster ovary cells (CHO) engineered to express human or cynomolgus monkey E-selectin.
CHO cells expressing E-selectin were seeded at 12,500 cells per well into a 96 well tissue culture plate and incubated at 37° C., 5% CO₂ for 48 hours to form a confluent monolayer. Plates were subsequently washed twice with 200 μL of calcium magnesium free PBS. Anti-E-selectin antibodies or an IgG1 isotype control (IgG control) were added to the assay in the presence of a small synthetic conjugate of biotinylated, sialyl Lewis A polyacrylamide (Carbosynth LLC, OS45446) or sialyl Lewis X polyacrylamide (Glycotech, 01-045) with streptavidin/horseradish peroxidase (100 μL total) and incubated at 37° C., 5% CO₂ for 2 hours. […] Reactions were stopped using 2 M of sulfuric acid and absorbance was read at 450 nm (Spectramax M5e). Data were analyzed and graphed using GraphPad Prism software (Version 8.0.2).
(In general: An ELISA detects its analyte on a solid surface through an enzyme-linked reagent.)

Usually Kd stands for the constant that tells how readily two partners part at equilibrium. As a reminder, the IC50 is the midpoint of a concentration-inhibition curve.

B1: optimized anti-E-selectin antibody 1444 (antibody, human IgG1, kappa, V domains shown)
VH: EVQLVESGGGLVQPGGSLRLSCAASGYAIRSAYMHWVRQAPGKGLEWVARIDPANGNTIYVDSVTGRFTISADNAKNSAYLQMNSLRAEDTAVYYCAMDLYSTSEYWGQGTLVTVSS
VL: DIQMTQSPSSLSASVGDRVTITCKTSQNIERYLNWYQQKPGKAPKLLIYAASSLQSGVPSRFSGSGSGTDFTLTISSLQPEDFATYFCLQDNAWPLTFGQGTKVEIKR
notes: effector-null human IgG1, kappa
As for B1, the Kd in experiment [1] came to 0.0649 µM. The molecule further came in with a concentration for half-maximal inhibition (IC50) in experiment [2] of 0.00147 to 0.00265 µM.
